Laboratory results: the Immune Epitope Database (IEDB)

Key:
[1] = target: HLA-A*02:12; assay: IEDB peptide-MHC binding, purified MHC/direct/fluorescence; filed as Kd, often an IC50 or EC50 that approximates it; ≥ and ≤ were set here for values at or beyond the usual limits of such assays; settings: source organism: Limestone Canyon virus
[2] = target: HLA-A*02:16; assay: as above; settings: source organism: Limestone Canyon virus
[3] = target: HLA-A*02:19; assay: as above; settings: source organism: Limestone Canyon virus
[4] = target: HLA-A*03:01; assay: as above
[5] = target: HLA-A*29:02; assay: as above; settings: source organism: Limestone Canyon virus
[6] = target: HLA-B*07:02; assay: as above
[7] = target: HLA-C*15:02; assay: as above; settings: source organism: Four Corners hantavirus
[8] = target: HLA-A*26:01; assay: IEDB peptide-MHC binding, purified MHC/competitive/fluorescence; filed as Kd, often an IC50 or EC50 that approximates it; ≥ and ≤ were set here for values at or beyond the usual limits of such assays
[9] = target: HLA-A*69:01; assay: as above
[10] = target: HLA-B*15:01; assay: as above
[11] = target: HLA-B*15:17; assay: as above
[12] = target: HLA-B*18:01; assay: as above
[13] = target: HLA-B*27:03; assay: as above
[14] = target: HLA-B*39:01; assay: as above
[15] = target: HLA-B*51:01; assay: as above
[16] = target: HLA-B*57:01; assay: as above
[17] = target: HLA-A*01:01; assay: IEDB peptide-MHC binding, purified MHC/direct/fluorescence; filed as Kd, often an IC50 or EC50 that approximates it; ≥ and ≤ were set here for values at or beyond the usual limits of such assays
[18] = target: HLA-A*02:01; assay: as above
[19] = target: HLA-A*11:01; assay: as above
[20] = target: HLA-A*24:03; assay: as above; settings: source organism: Salmonella enterica subsp. enterica serovar Typhi
[21] = target: HLA-A*26:01; assay: as above
[22] = target: HLA-A*31:01; assay: as above
[23] = target: HLA-A*69:01; assay: as above
[24] = target: HLA-B*08:01; assay: as above
[25] = target: HLA-B*15:01; assay: as above; settings: source organism: Salmonella enterica subsp. enterica serovar Typhi
[26] = target: HLA-B*27:05; assay: as above
[27] = target: HLA-B*35:01; assay: as above; settings: source organism: Salmonella enterica subsp. enterica serovar Typhi
[28] = target: HLA-B*40:01; assay: as above
[29] = target: HLA-B*44:02; assay: as above; settings: source organism: Salmonella enterica subsp. enterica serovar Typhi
[30] = target: HLA-B*58:01; assay: as above
[31] = target: HLA-A*68:02; assay: as above
[32] = target: HLA-B*08:03; assay: as above; settings: source organism: Francisella tularensis subsp. tularensis FSC033
[33] = target: HLA-B*18:01; assay: as above
[34] = target: HLA-B*57:01; assay: as above
[35] = target: HLA-A*02:03; assay: IEDB peptide-MHC binding, purified MHC/competitive/fluorescence; filed as Kd, often an IC50 or EC50 that approximates it; ≥ and ≤ were set here for values at or beyond the usual limits of such assays; settings: source organism: Francisella tularensis subsp. tularensis FSC198
[36] = target: HLA-A*26:02; assay: as above; settings: source organism: Francisella tularensis subsp. tularensis FSC198
[37] = target: HLA-A*30:01; assay: as above; settings: source organism: Francisella tularensis subsp. tularensis FSC198
[38] = target: HLA-B*07:02; assay: as above; settings: source organism: Francisella tularensis subsp. tularensis FSC198
[39] = target: HLA-A*02:01; assay: as above
[40] = target: HLA-A*03:01; assay: as above; settings: source organism: Pan troglodytes
[41] = target: HLA-A*68:02; assay: as above; settings: source organism: Pan troglodytes
[42] = target: HLA-B*46:01; assay: as above; settings: source organism: Pan troglodytes
[43] = target: HLA-B*15:09; assay: IEDB peptide-MHC binding, purified MHC/direct/fluorescence; filed as Kd, often an IC50 or EC50 that approximates it; ≥ and ≤ were set here for values at or beyond the usual limits of such assays; settings: source organism: Ravn virus - Ravn, Kenya, 1987
[44] = target: HLA-B*15:17; assay: as above; settings: source organism: Marburg virus - Musoke, Kenya, 1980
[45] = target: HLA-B*48:01; assay: as above; settings: source organism: Marburg virus - Musoke, Kenya, 1980
[46] = target: HLA-A*02:06; assay: IEDB peptide-MHC binding, purified MHC/competitive/fluorescence; filed as Kd, often an IC50 or EC50 that approximates it; ≥ and ≤ were set here for values at or beyond the usual limits of such assays; settings: source organism: Orthomarburgvirus marburgense
[47] = source organism: Four Corners hantavirus
[48] = source organism: Salmonella enterica subsp. enterica serovar Typhi
[49] = source organism: Francisella tularensis subsp. holarctica LVS
[50] = source organism: Pan troglodytes
[51] = source organism: Marburg virus - Musoke, Kenya, 1980
[52] = source organism: Ravn virus - Ravn, Kenya, 1987

Q: For KARNIISPV, which Kd [1] is on record?
A: Its Kd is at least 20 µM.

Q: And the Kd [2]?
A: Its Kd is at least 20 µM.

Q: And the Kd [3]?
A: The Kd was at least 20 µM.

Q: What about the Kd ([4]; source organism: Limestone Canyon virus) of the same sequence?
A: Its Kd is at least 20 µM.

Q: What about the Kd [5] of the same sequence?
A: The Kd was at least 20 µM.

Q: What about the Kd ([6]; source organism: Hantavirus Monongahela-3) of the same sequence?
A: Its Kd is 0.107 µM.

Q: What about the Kd [7] of the same sequence?
A: Its Kd is 0.088 µM.

Q: And the Kd [8, 47]?
A: The Kd was at least 20 µM.

Q: And the Kd [9, 47]?
A: Its Kd is at least 20 µM.

Q: What about the Kd [10, 47] of the same sequence?
A: The Kd was at least 20 µM.

Q: What about the Kd [11, 47] of the same sequence?
A: The Kd was at least 20 µM.

Q: What about the Kd [12, 47] of the same sequence?
A: Its Kd is at least 20 µM.

Q: What about the Kd [13, 47] of the same sequence?
A: Its Kd is at least 20 µM.

Q: What about the Kd [14, 47] of the same sequence?
A: The Kd was at least 20 µM.

Q: What about the Kd [15, 47] of the same sequence?
A: The Kd was at least 20 µM.

Q: What about the Kd [16, 47] of the same sequence?
A: The Kd was at least 20 µM.

Q: What does the source list for LPLIVDTAA?
A: Kd [17, 48]: ≥ 20 µM; Kd [18, 48]: ≥ 20 µM; Kd [4, 48]: ≥ 20 µM; Kd [19, 48]: ≥ 20 µM; Kd [20]: ≥ 20 µM; Kd [21, 48]: ≥ 20 µM; Kd [22, 48]: ≥ 20 µM; Kd [23, 48]: ≥ 20 µM; Kd [6, 48]: 5.75 µM; Kd [24, 48]: 11.2 µM; Kd [25]: ≥ 20 µM; Kd [26, 48]: ≥ 20 µM; Kd [27]: 0.00636 µM; Kd [28, 48]: ≥ 20 µM; Kd [29]: ≥ 20 µM; Kd [30, 48]: ≥ 20 µM

Q: Which results are given for EFKRRLKDL?
A: Kd [17, 49]: ≥ 20 µM; Kd [18, 49]: ≥ 20 µM; Kd [19, 49]: ≥ 20 µM; Kd ([21]; source organism: Francisella tularensis subsp. tularensis FSC033): ≥ 20 µM; Kd [22, 49]: ≥ 20 µM; Kd [31, 49]: ≥ 20 µM; Kd [23, 49]: ≥ 20 µM; Kd [24, 49]: 0.0523 µM; Kd [32]: ≥ 20 µM; Kd [33, 49]: ≥ 20 µM; Kd [34, 49]: ≥ 20 µM; Kd [30, 49]: ≥ 20 µM; Kd [35]: ≥ 20 µM; Kd [36]: ≥ 20 µM; Kd [37]: ≥ 20 µM; Kd [38]: ≥ 20 µM; Kd ([10]; source organism: Francisella tularensis subsp. tularensis FSC198): ≥ 20 µM

Q: How did the Kd [39, 50] turn out when FLFDRLTNG was run?
A: The Kd was 0.0015 µM.

Q: What about the Kd [40] of the same sequence?
A: Its Kd is at least 20 µM.

Q: What about the Kd [8, 50] of the same sequence?
A: Its Kd is at least 20 µM.

Q: What about the Kd [41] of the same sequence?
A: Its Kd is at least 20 µM.

Q: And the Kd [9, 50]?
A: The Kd was at least 20 µM.

Q: And the Kd [10, 50]?
A: The Kd was at least 20 µM.

Q: What about the Kd [11, 50] of the same sequence?
A: The Kd was at least 20 µM.

Q: What about the Kd [12, 50] of the same sequence?
A: The Kd was at least 20 µM.

Q: What about the Kd [13, 50] of the same sequence?
A: Its Kd is at least 20 µM.

Q: And the Kd [14, 50]?
A: The Kd was at least 20 µM.

Q: And the Kd [42]?
A: The Kd was at least 20 µM.

Q: What about the Kd [15, 50] of the same sequence?
A: The Kd was at least 20 µM.

Q: What about the Kd [16, 50] of the same sequence?
A: The Kd was at least 20 µM.

Q: How did the Kd [17, 51] turn out when GEGSGARLL was run?
A: The Kd was at least 20 µM.

Q: What about the Kd [19, 51] of the same sequence?
A: The Kd was at least 20 µM.

Q: What about the Kd [21, 52] of the same sequence?
A: The Kd was at least 20 µM.

Q: What about the Kd [22, 51] of the same sequence?
A: The Kd was at least 20 µM.

Q: What about the Kd [31, 51] of the same sequence?
A: The Kd was at least 20 µM.

Q: And the Kd [23, 51]?
A: Its Kd is at least 20 µM.

Q: And the Kd [6, 51]?
A: Its Kd is at least 20 µM.

Q: What about the Kd [24, 52] of the same sequence?
A: Its Kd is at least 20 µM.

Q: What about the Kd [43] of the same sequence?
A: Its Kd is at least 20 µM.

Q: What about the Kd [44] of the same sequence?
A: The Kd was at least 20 µM.

Q: And the Kd [33, 51]?
A: The Kd was at least 20 µM.

Q: What about the Kd [26, 51] of the same sequence?
A: Its Kd is at least 20 µM.

Q: And the Kd [28, 51]?
A: Its Kd is 0.279 µM.

Q: And the Kd [45]?
A: The Kd was at least 20 µM.

Q: What about the Kd [34, 51] of the same sequence?
A: Its Kd is at least 20 µM.

Q: And the Kd [30, 51]?
A: Its Kd is at least 20 µM.

Q: And the Kd ([39]; source organism: Orthomarburgvirus marburgense)?
A: The Kd was 4.69 µM.

Q: And the Kd [46]?
A: The Kd was 1.14 µM.
